Measured values from US20250122278A1, “ANTI-INTERLEUKIN-9 ANTIBODY AND USE THEREOF” (GUANGDONG KEGUANDA PHARMACEUTICAL TECHNOLOGY CO., LTD., priority 2022, published 2025).
Substitutions are numbered along the chain they refer to. Each block holds one molecule with its values, some of them ahead of it.

Assays:
[1] = test system: silica mouse model of pulmonary fibrosis; assay: Silica mouse pulmonary fibrosis model; format: in vivo, C57BL/6J mice; settings: 30 d
Protocol: (§1) 6 to 8-week-old male C57BL/6J mice (purchased from Guangdong Sijiajingda Biotechnology Co., Ltd., license No.: SCXK (Guangdong) 2020-0052) were grouped, modeled, and administered according to the protocols shown in Tables 6 and 7 below. The modeling with bleomycin (Nippon Kayaku, 15 mg powder, and dose: 1.5 mg/kg) and silica (SiO2, sigma, USA, S5631-500 g, and dose: 2.5 mg/mouse) was started on day 0 (DO). The administration was started on day 1 (D1), and normal saline was adopted as a solvent for an antibody. A positive drug pirfenidone (Beijing Kangdini Pharmaceutical Co., Ltd., 100 mg capsule) was adopted in a positive control group, and the humanized antibody hu.CA1 (VH1−VL2) of the present application was adopted in an anti-IL-9 antibody group.
(§2) A body weight of each mouse was measured every day. After the bleomycin model group was administered for 21 d and the silica model group was administered for 30 d, mice were sacrificed to collect lung tissues. The lung tissues each were stained to detect pathological changes in the lung tissues. Specifically, a degree of alveolar inflammation was detected through HE staining (an HE staining kit was purchased from Shanghai Beyotime Biotechnology, C0105M). A degree of pulmonary fibrosis was detected through Masson staining (a Masson staining kit was purchased from Nanjing Jiancheng Institute of Biological Engineering, D026-1-2). Scoring criteria for the HE staining and Masson staining were shown in Table 8 and Table 9 below, respectively (as shown in references: Matute-Bello G, Downey G, Moore B B, et al. An official American Thoracic Society workshop report: features and measurements of experimental acute lung injury in animals. Am J Respir Cell Mol Biol. 2011; 44 (5): 725-738. doi: 10.1165/rcmb.2009-0210ST and Lee Hyun Ju, Goo Jin Mo, Kim Na Ra et al. Semiquantitative measurement of murine bleomycin-induced lung fibrosis in in vivo and postmortem conditions using microcomputed tomography: correlation with pathologic scores—initial results. [J].Invest Radiol, 2008, 43: 453-60).

[2] = test system: bleomycin mouse model of pulmonary fibrosis; assay: Bleomycin mouse pulmonary fibrosis model; format: in vivo; settings: bleomycin model, 21 d
Protocol: as §1, §2

[3] = molecular target: T1, IL-9-His recombinant protein (UniProt P15248 19-144); assay: ELISA on coated IL-9-His, OD450; unit taken from the x axis, the table prints none
T1 construct: range 19-144; used as coating antigen in the ELISAs; also called IL9 (19-144)-His; not shown: His tag, C-terminal by the vector name

[4] = molecular target: T2, biotin-conjugated IL-9-Fc (Biotin-IL-9-Fc) (UniProt P15248 19-144, biotin-conjugated (sites not given)); assay: flow cytometry blocking assay (IL9-IL9R blocking determination): serially diluted antibody against the binding of Biotin-IL-9-Fc to 293-IL-9R cells (IL-9R), MFI; unit taken from the x axis, the table prints none
T2 construct: range 19-144; also called Fc-IL-9 recombinant protein; Fc-IL-9; not shown: Fc tag (Fc2 in the vector name pLVX-Fc2-IL9 (19-144)-Puro)

IL-9 = molecular target: T3, IL-9 (Homo sapiens, UniProt P15248); assay: ELISA binding of humanized antibodies to the target antigen; settings: ELISA of culture supernatant of 293F cells, control chimeric antibody CA1
T3 construct: pcDNA3.4-IL9 (19-144)-His (P15248); His (C); made in house; host or cells: 293F cells (transient transfection)
Protocol: ELISA was conducted according to a standard protocol to determine the affinity of a purified antibody for the IL-9-His recombinant protein. In short, the IL-9-His recombinant protein was diluted with sterile PBS and added at 100 μL/well to a 96-well plate. The plate was incubated at 4° C. overnight and then blocked with a blocking buffer. 100 μL of a purified anti-IL-9 antibody serially diluted was added to the plate, and the plate was incubated for 1 h at room temperature. PBS was added to a control well. The plate was washed with PBST 3 times. Then 100 μL of horseradish peroxidase (HRP)-labeled anti-mouse IgG H&L (BIODRAGON, CAT #BF03001) was added, and the plate was incubated for 1 h at room temperature. The plate was washed with PBST 3 times. Then a chromogenic reaction was conducted with a 3,3′,5,5′-tetramethylbenzidine (TMB) chromogenic solution at room temperature. An OD value in each well was read by a microplate reader. Data was processed with PRISM GraphPad, and curves were plotted. The EC50 value for each candidate antibody was calculated.
Humanized antibody expression vectors carrying a designed heavy-chain or light-chain sequence were transiently transfected into 293F cells in pairs, and then a resulting culture supernatant was collected. According to a standard protocol (with reference to part 5.1 in Example 1), with a human-mouse chimeric antibody CA1 constructed with VH and VL of the original murine antibody as a control, the binding of a humanized antibody to a target antigen was detected by ELISA. The method for ELISA was the same as described in 5.1 of Example 1. […] In the follow-up experiments, the four combinations of VH1−VL2, VH1−VL4, VH2−VL4, and VH3−VL4 (hu.CA1 to hu.CA4) were taken as examples for antibody purification and function testing. […]

IL-9 antigen protein = molecular target: T4, IL-9 antigen protein (Homo sapiens, UniProt P15248); assay: ForteBio (BLI) affinity detection; format: binding; settings: antibody immobilized on Protein A sensor, antigen 7.81-125 nM
T4 construct: pcDNA3.4-IL9 (19-144)-His (P15248) and pLVX-Fc2-IL9 (19-144)-Puro; made in house; host or cells: 293F cells (transient transfection)
Protocol: The affinity of a humanized antibody was detected by ForteBio (BLI). The chimeric (as a control) and humanized antibodies were immobilized with a Protein A sensor (SARTORIUS, Cat #18-5010) at an immobilization height of about 1 nm. An antigen protein sample was serially diluted with PBS to 125 nM, 62.5 nM, 31.25 nM, 15.625 nM, 7.81 nM, and 0 nM. An affinity detection procedure was as follows: equilibration for 60 s, binding for 180 s, and dissociation for 180 s.

[5] = antibody 100 μg i.p. every other day, pirfenidone 300 mg/kg intragastric daily

T3 sequence (P15248 19-144): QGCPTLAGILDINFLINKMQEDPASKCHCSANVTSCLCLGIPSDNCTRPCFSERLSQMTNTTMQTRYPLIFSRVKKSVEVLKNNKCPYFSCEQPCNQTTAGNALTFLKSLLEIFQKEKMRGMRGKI
T1 sequence (P15248 19-144 limits assumed, form in doubt): as the sequence (P15248 19-144) above
T4 sequence (P15248 19-144): as above
T2 sequence (P15248 19-144 limits assumed, form in doubt): as the sequence (P15248 19-144) above

Molecule: Cc1ccc(=O)n(-c2ccccc2)c1 [pirfenidone, reference compound]
collagen fibers and fibrosis regions of lung tissues (Masson staining) [1]: significantly reduced
inflammation score ([1]; HE staining, FIG. 11B): significantly reduce an inflammation score
fibrosis score ([1]; Masson staining, FIG. 12B): reduce a fibrosis score
lung tissue structures (HE staining) [1, 5]: improved
collagen fibers and fibrosis regions of lung tissues (Masson staining) [2]: significantly reduced
inflammation score ([2]; HE staining, FIG. 9B): significantly reduce an inflammation score
fibrosis score ([2]; Masson staining, FIG. 10B): significantly reduce a fibrosis score
lung tissue structures (HE staining) [2, 5]: improved

B2: VH2+VL4: humanized antibody, VH SEQ ID NO: 27, VL SEQ ID NO: 33 (antibody, V domains shown)
VH: EVQLVQSGAEVMKPGASVKVSCKATGYTFTGYWIEWVRLAPGQGLEWMGEILPGSGSTNYNQKFQGRVTFTADTSTNTAYMELSSLRSEDTAIYYCARRTYYYGIPEDYWGQGTLVTVSS
VL: DIVMTQSPKFLSASVGDRVTITCKASQNVGTNVAWHQQKPGQSPKPLIYSASYRYSGVPSRFTGSGSGTDFTLTISNLQPEDFAEYFCQQYNSYPLTFGAGTKLEIK
binding to IL-9 (IL-9): bind to IL-9 with high affinity

B3: CA1: human-mouse chimeric IgG1/kappa antibody with VH and VL of murine 38-D8-C7-G9 (antibody, V domains shown)
VH: EVQLKQSGAELMKPGASVKLSCKATGYTFTGYWIEWVKLRPGHGLEWIGEILPGSGSTNYNEEFKGKATFTADTSSNTAYMQLNSLTTEDSAIYYCARRTYYYGIPEDYWGQGTSVTVSS
VL: B2 VL with P8Q, L11M, A13T, T20S, I21V, S60D, L78V, P80S, F83L, I106L
Koff (IL-9 antigen protein): 0.0009336 s⁻¹
Kon (IL-9 antigen protein): 2.13e+06 M⁻¹ s⁻¹

B5: VH1+VL1: humanized antibody, VH SEQ ID NO: 26, VL SEQ ID NO: 30 (antibody, V domains shown)
VH: B2 VH with V5K, Q43H, T76I, S85R, E89D
VL: B2 VL with P8Q, A13T, K24R
binding to IL-9 (IL-9): bind to IL-9 with high affinity

B6: VH1+VL3: humanized antibody, VH SEQ ID NO: 26, VL SEQ ID NO: 32 (antibody, V domains shown)
VH: B2 VH with V5K, Q43H, T76I, S85R, E89D
VL: B2 VL with L11V, A13T, K24R
binding to IL-9 (IL-9): bind to IL-9 with high affinity

B7: VH2+VL3: humanized antibody, VH SEQ ID NO: 27, VL SEQ ID NO: 32 (antibody, V domains shown)
VH: B2 VH
VL: B2 VL with L11V, A13T, K24R
binding to IL-9 (IL-9): bind to IL-9 with high affinity

B9: VH2+VL1: humanized antibody, VH SEQ ID NO: 27, VL SEQ ID NO: 30 (antibody, V domains shown)
VH: B2 VH
VL: B2 VL with P8Q, A13T, K24R
binding to IL-9 (IL-9): bind to IL-9 with high affinity

More lines, now with the values ahead:

EC50 [3]: 0.0329 mg/L
EC50 [4]: 11.7 mg/L
B1: humanized antibody VH2-VL4 (hu.CA3) (antibody, V domains shown)
VH: B2 VH
VL: B2 VL
notes: IgG1 / kappa by the vectors pcDNA3.4-IgG1 and pcDNA3.4-IgKc

binding to IL-9 (IL-9): bind to IL-9 with high affinity
B4: VH3+VL3: humanized antibody, VH SEQ ID NO: 28, VL SEQ ID NO: 32 (antibody, V domains shown)
VH: B2 VH with F64L, S84R, E89D
VL: B2 VL with L11V, A13T, K24R

binding to IL-9 (IL-9): bind to IL-9 with high affinity
B8: VH4+VL1: humanized antibody, VH SEQ ID NO: 29, VL SEQ ID NO: 30 (antibody, V domains shown)
VH: B2 VH with V5K, V20L, R38K, Q43H, M48I, Q62E, K63E, T76S, S85R, E89D
VL: B2 VL with P8Q, A13T, K24R

binding to IL-9 (IL-9): bind to IL-9 with high affinity
B10: VH4+VL3: humanized antibody, VH SEQ ID NO: 29, VL SEQ ID NO: 32 (antibody, V domains shown)
VH: B2 VH with V5K, V20L, R38K, Q43H, M48I, Q62E, K63E, T76S, S85R, E89D
VL: B2 VL with L11V, A13T, K24R

binding to IL-9 (IL-9): bind to IL-9 with high affinity
B11: VH3+VL1: humanized antibody, VH SEQ ID NO: 28, VL SEQ ID NO: 30 (antibody, V domains shown)
VH: B2 VH with F64L, S84R, E89D
VL: B2 VL with P8Q, A13T, K24R

binding to IL-9 (IL-9): bind to IL-9 with high affinity
B12: VH3+VL4: humanized antibody, VH SEQ ID NO: 28, VL SEQ ID NO: 33 (antibody, V domains shown)
VH: B2 VH with F64L, S84R, E89D
VL: B2 VL

EC50 [3]: 0.0323 mg/L
EC50 [4]: 11.3 mg/L
B13: humanized antibody VH3-VL4 (hu.CA4) (antibody, V domains shown)
VH: B2 VH with F64L, S84R, E89D
VL: B2 VL
notes: as for B1
